Target: giantin-WT-GFP (UniProt Q14789)
Assay: atomic force microscopy (particle volumes); giantin-GFP isolated with GFP-Trap Magnetic Agarose from DMSO- or BFA-treated HeLa cells (lysate with NEM), treated with 2% β-mercaptoethanol, deposited on mica, tapping mode in air; volumes by the spherical cap model, Gaussian fit of the …
Conditions: remark: other sources report otherwise

Question: giantin-WT-GFP, Q14789 1-3259 was tested. Which percent of particles in the dimer peak (BFA-treated cells) did it give?
Answer: Its percent of particles in the dimer peak (BFA-treated cells) is 10%.

Question: And the percent of particles in the dimer peak (DMSO-treated cells)?
Answer: The percent of particles in the dimer peak (DMSO-treated cells) was 27%.

Question: What about the stoichiometry N of the same substance?
Answer: Its stoichiometry N is 2.
